Substitutions are numbered along the chain they refer to. Numbered stars: 1 amine (or outer) side, 2 acyl side, 3 side chain; on linkers, the order of the positions; unused ones are H or OH. Square brackets hold non-standard residues; d marks the D form. Side chains are listed from the residue outwards. Ends that are not written are not given here. * marks the point of attachment. C20 diacid = O=C(O)CCCCCCCCCCCCCCCCCCC(=O)*; γGlu = O=C(O)[C@H](CCC(=O)[*:2])N[*:1]; AEEA = NCCOCCOCC(=O)O; Aib = CC(C)(N)C(=O)O
B1: Peptide 65 (peptide)
peptide: YXEGTFTSDYSIXLDTKAQXAFIEYLIEGG
modifications: Aib2; αMeL13; K17((2-[2-(2-Amino-ethoxy)-ethoxy]-acetyl)2-(γGlu)-CO-(CH2)18-CO2H); Aib20; C-terminal NH2
B2: Peptide 50 (peptide)
peptide: Y[Aib]EGTFTSDYSILLDKK([AEEA-AEEA-γGlu-C20 diacid])AQ[Aib]AFIEYLIEGGPSSG-NH2
modifications: N-terminus assumed
SMILES: CC[C@H](C)[C@H](NC(=O)[C@H](CC(C)C)NC(=O)[C@H](Cc1ccc(O)cc1)NC(=O)[C@H](CCC(=O)O)NC(=O)[C@@H](NC(=O)[C@H](Cc1ccccc1)NC(=O)[C@H](C)NC(=O)C(C)(C)NC(=O)[C@H](CCC(N)=O)NC(=O)[C@H](C)NC(=O)[C@H](CCCCNC(=O)COCCOCCNC(=O)COCCOCCNC(=O)CC[C@H](NC(=O)CCCCCCCCCCCCCCCCCCC(=O)O)C(=O)O)NC(=O)[C@H](CCCCN)NC(=O)[C@H](CC(=O)O)NC(=O)[C@H](CC(C)C)NC(=O)[C@H](CC(C)C)NC(=O)[C@@H](NC(=O)[C@H](CO)NC(=O)[C@H](Cc1ccc(O)cc1)NC(=O)[C@H](CC(=O)O)NC(=O)[C@H](CO)NC(=O)[C@@H](NC(=O)[C@H](Cc1ccccc1)NC(=O)[C@@H](NC(=O)CNC(=O)[C@H](CCC(=O)O)NC(=O)C(C)(C)NC(=O)[C@@H](N)Cc1ccc(O)cc1)[C@@H](C)O)[C@@H](C)O)[C@@H](C)CC)[C@@H](C)CC)C(=O)N[C@@H](CCC(=O)O)C(=O)NCC(=O)NCC(=O)N1CCC[C@H]1C(=O)N[C@@H](CO)C(=O)N[C@@H](CO)C(=O)NCC(N)=O
B3: Peptide 41 (peptide)
peptide: Y[Aib]EGTFTSDYSILLDKIAQ[Aib]AFIEYLIEGGPK([AEEA-AEEA-γGlu-C20 diacid])SGAPPPS-NH2
modifications: N-terminus assumed
SMILES: CC[C@H](C)[C@H](NC(=O)[C@H](CCCCN)NC(=O)[C@H](CC(=O)O)NC(=O)[C@H](CC(C)C)NC(=O)[C@H](CC(C)C)NC(=O)[C@@H](NC(=O)[C@H](CO)NC(=O)[C@H](Cc1ccc(O)cc1)NC(=O)[C@H](CC(=O)O)NC(=O)[C@H](CO)NC(=O)[C@@H](NC(=O)[C@H](Cc1ccccc1)NC(=O)[C@@H](NC(=O)CNC(=O)[C@H](CCC(=O)O)NC(=O)C(C)(C)NC(=O)[C@@H](N)Cc1ccc(O)cc1)[C@@H](C)O)[C@@H](C)O)[C@@H](C)CC)C(=O)N[C@@H](C)C(=O)N[C@@H](CCC(N)=O)C(=O)NC(C)(C)C(=O)N[C@@H](C)C(=O)N[C@@H](Cc1ccccc1)C(=O)N[C@H](C(=O)N[C@@H](CCC(=O)O)C(=O)N[C@@H](Cc1ccc(O)cc1)C(=O)N[C@@H](CC(C)C)C(=O)N[C@H](C(=O)N[C@@H](CCC(=O)O)C(=O)NCC(=O)NCC(=O)N1CCC[C@H]1C(=O)N[C@@H](CCCCNC(=O)COCCOCCNC(=O)COCCOCCNC(=O)CC[C@H](NC(=O)CCCCCCCCCCCCCCCCCCC(=O)O)C(=O)O)C(=O)N[C@@H](CO)C(=O)NCC(=O)N[C@@H](C)C(=O)N1CCC[C@H]1C(=O)N1CCC[C@H]1C(=O)N1CCC[C@H]1C(=O)N[C@@H](CO)C(N)=O)[C@@H](C)CC)[C@@H](C)CC
B4: Peptide 48 (peptide)
peptide: Y[Aib]EGTFTSDYSILLDKIAQ[Aib]AFIEYLIEGGPSSGAPPPK([AEEA-AEEA-γGlu-C20 diacid])-NH2
modifications: N-terminus assumed
SMILES: CC[C@H](C)[C@H](NC(=O)[C@H](CCCCN)NC(=O)[C@H](CC(=O)O)NC(=O)[C@H](CC(C)C)NC(=O)[C@H](CC(C)C)NC(=O)[C@@H](NC(=O)[C@H](CO)NC(=O)[C@H](Cc1ccc(O)cc1)NC(=O)[C@H](CC(=O)O)NC(=O)[C@H](CO)NC(=O)[C@@H](NC(=O)[C@H](Cc1ccccc1)NC(=O)[C@@H](NC(=O)CNC(=O)[C@H](CCC(=O)O)NC(=O)C(C)(C)NC(=O)[C@@H](N)Cc1ccc(O)cc1)[C@@H](C)O)[C@@H](C)O)[C@@H](C)CC)C(=O)N[C@@H](C)C(=O)N[C@@H](CCC(N)=O)C(=O)NC(C)(C)C(=O)N[C@@H](C)C(=O)N[C@@H](Cc1ccccc1)C(=O)N[C@H](C(=O)N[C@@H](CCC(=O)O)C(=O)N[C@@H](Cc1ccc(O)cc1)C(=O)N[C@@H](CC(C)C)C(=O)N[C@H](C(=O)N[C@@H](CCC(=O)O)C(=O)NCC(=O)NCC(=O)N1CCC[C@H]1C(=O)N[C@@H](CO)C(=O)N[C@@H](CO)C(=O)NCC(=O)N[C@@H](C)C(=O)N1CCC[C@H]1C(=O)N1CCC[C@H]1C(=O)N1CCC[C@H]1C(=O)N[C@@H](CCCCNC(=O)COCCOCCNC(=O)COCCOCCNC(=O)CC[C@H](NC(=O)CCCCCCCCCCCCCCCCCCC(=O)O)C(=O)O)C(N)=O)[C@@H](C)CC)[C@@H](C)CC
B5: Peptide 63 (peptide)
peptide: B1 peptide with T16E
modifications: Aib2; αMeL13; K17((2-[2-(2-Amino-ethoxy)-ethoxy]-acetyl)2-(γGlu)-CO-(CH2)18-CO2H); Aib20; C-terminal NH2
B6: Peptide 46 (peptide)
peptide: Y[Aib]EGTFTSDYSILLDKIAQ[Aib]AFIEYLIEGGPSSGAPK([AEEA-AEEA-γGlu-C20 diacid])PS-NH2
modifications: N-terminus assumed
SMILES: CC[C@H](C)[C@H](NC(=O)[C@H](CCCCN)NC(=O)[C@H](CC(=O)O)NC(=O)[C@H](CC(C)C)NC(=O)[C@H](CC(C)C)NC(=O)[C@@H](NC(=O)[C@H](CO)NC(=O)[C@H](Cc1ccc(O)cc1)NC(=O)[C@H](CC(=O)O)NC(=O)[C@H](CO)NC(=O)[C@@H](NC(=O)[C@H](Cc1ccccc1)NC(=O)[C@@H](NC(=O)CNC(=O)[C@H](CCC(=O)O)NC(=O)C(C)(C)NC(=O)[C@@H](N)Cc1ccc(O)cc1)[C@@H](C)O)[C@@H](C)O)[C@@H](C)CC)C(=O)N[C@@H](C)C(=O)N[C@@H](CCC(N)=O)C(=O)NC(C)(C)C(=O)N[C@@H](C)C(=O)N[C@@H](Cc1ccccc1)C(=O)N[C@H](C(=O)N[C@@H](CCC(=O)O)C(=O)N[C@@H](Cc1ccc(O)cc1)C(=O)N[C@@H](CC(C)C)C(=O)N[C@H](C(=O)N[C@@H](CCC(=O)O)C(=O)NCC(=O)NCC(=O)N1CCC[C@H]1C(=O)N[C@@H](CO)C(=O)N[C@@H](CO)C(=O)NCC(=O)N[C@@H](C)C(=O)N1CCC[C@H]1C(=O)N[C@@H](CCCCNC(=O)COCCOCCNC(=O)COCCOCCNC(=O)CC[C@H](NC(=O)CCCCCCCCCCCCCCCCCCC(=O)O)C(=O)O)C(=O)N1CCC[C@H]1C(=O)N[C@@H](CO)C(N)=O)[C@@H](C)CC)[C@@H](C)CC
B7: Peptide 62 (peptide)
peptide: B1 peptide with T16K
modifications: Aib2; αMeL13; K17((2-[2-(2-Amino-ethoxy)-ethoxy]-acetyl)2-(γGlu)-CO-(CH2)18-CO2H); Aib20; C-terminal NH2
B8: Peptide 64 (peptide)
peptide: B1 peptide with T16S
modifications: Aib2; αMeL13; K17((2-[2-(2-Amino-ethoxy)-ethoxy]-acetyl)2-(γGlu)-CO-(CH2)18-CO2H); Aib20; C-terminal NH2
B9: Peptide 47 (peptide)
peptide: Y[Aib]EGTFTSDYSILLDKIAQ[Aib]AFIEYLIEGGPSSGAPPK([AEEA-AEEA-γGlu-C20 diacid])S-NH2
modifications: N-terminus assumed
SMILES: CC[C@H](C)[C@H](NC(=O)[C@H](CCCCN)NC(=O)[C@H](CC(=O)O)NC(=O)[C@H](CC(C)C)NC(=O)[C@H](CC(C)C)NC(=O)[C@@H](NC(=O)[C@H](CO)NC(=O)[C@H](Cc1ccc(O)cc1)NC(=O)[C@H](CC(=O)O)NC(=O)[C@H](CO)NC(=O)[C@@H](NC(=O)[C@H](Cc1ccccc1)NC(=O)[C@@H](NC(=O)CNC(=O)[C@H](CCC(=O)O)NC(=O)C(C)(C)NC(=O)[C@@H](N)Cc1ccc(O)cc1)[C@@H](C)O)[C@@H](C)O)[C@@H](C)CC)C(=O)N[C@@H](C)C(=O)N[C@@H](CCC(N)=O)C(=O)NC(C)(C)C(=O)N[C@@H](C)C(=O)N[C@@H](Cc1ccccc1)C(=O)N[C@H](C(=O)N[C@@H](CCC(=O)O)C(=O)N[C@@H](Cc1ccc(O)cc1)C(=O)N[C@@H](CC(C)C)C(=O)N[C@H](C(=O)N[C@@H](CCC(=O)O)C(=O)NCC(=O)NCC(=O)N1CCC[C@H]1C(=O)N[C@@H](CO)C(=O)N[C@@H](CO)C(=O)NCC(=O)N[C@@H](C)C(=O)N1CCC[C@H]1C(=O)N1CCC[C@H]1C(=O)N[C@@H](CCCCNC(=O)COCCOCCNC(=O)COCCOCCNC(=O)CC[C@H](NC(=O)CCCCCCCCCCCCCCCCCCC(=O)O)C(=O)O)C(=O)N[C@@H](CO)C(N)=O)[C@@H](C)CC)[C@@H](C)CC
B10: Peptide 51 (peptide)
peptide: Y[Aib]EGTFTSDYSILLDKK([AEEA-AEEA-γGlu-C20 diacid])AQ[Aib]AFIEYLIEGG-NH2
modifications: N-terminus assumed
SMILES: CC[C@H](C)[C@H](NC(=O)[C@H](CC(C)C)NC(=O)[C@H](Cc1ccc(O)cc1)NC(=O)[C@H](CCC(=O)O)NC(=O)[C@@H](NC(=O)[C@H](Cc1ccccc1)NC(=O)[C@H](C)NC(=O)C(C)(C)NC(=O)[C@H](CCC(N)=O)NC(=O)[C@H](C)NC(=O)[C@H](CCCCNC(=O)COCCOCCNC(=O)COCCOCCNC(=O)CC[C@H](NC(=O)CCCCCCCCCCCCCCCCCCC(=O)O)C(=O)O)NC(=O)[C@H](CCCCN)NC(=O)[C@H](CC(=O)O)NC(=O)[C@H](CC(C)C)NC(=O)[C@H](CC(C)C)NC(=O)[C@@H](NC(=O)[C@H](CO)NC(=O)[C@H](Cc1ccc(O)cc1)NC(=O)[C@H](CC(=O)O)NC(=O)[C@H](CO)NC(=O)[C@@H](NC(=O)[C@H](Cc1ccccc1)NC(=O)[C@@H](NC(=O)CNC(=O)[C@H](CCC(=O)O)NC(=O)C(C)(C)NC(=O)[C@@H](N)Cc1ccc(O)cc1)[C@@H](C)O)[C@@H](C)O)[C@@H](C)CC)[C@@H](C)CC)C(=O)N[C@@H](CCC(=O)O)C(=O)NCC(=O)NCC(N)=O
B11: Peptide 52 (peptide)
peptide: YXEGTFTSDYSIXLDSKAQXAFIEYLIEGGPSSGAPPPS
modifications: Aib2; αMeL13; K17((2-[2-(2-Amino-ethoxy)-ethoxy]-acetyl)2-(γGlu)-CO-(CH2)18-CO2H); Aib20; C-terminal NH2
B12: Peptide 69 (peptide)
peptide: B11 peptide with F6X, S16K
modifications: Aib2; αMeF6; αMeL13; K17((2-[2-(2-Amino-ethoxy)-ethoxy]-acetyl)2-(γGlu)-CO-(CH2)18-CO2H); Aib20; C-terminal NH2
B13: Peptide 60 (peptide)
peptide: B11 peptide with S16X
modifications: Aib2; αMeL13; Aib16; K17((2-[2-(2-Amino-ethoxy)-ethoxy]-acetyl)2-(γGlu)-CO-(CH2)18-CO2H); Aib20; C-terminal NH2
B14: Peptide 66 (peptide)
peptide: B11 peptide with S16E, I27L
modifications: Aib2; αMeL13; K17((2-[2-(2-Amino-ethoxy)-ethoxy]-acetyl)2-(γGlu)-CO-(CH2)18-CO2H); Aib20; C-terminal NH2
B15: Peptide 3 (peptide)
peptide: B11 peptide with F6X, S16X, A21E, E24X
modifications: Aib2; αMeF(2F)6; αMeL13; Orn16; K17((2-[2-(2-Amino-ethoxy)-ethoxy]-acetyl)2-(γGlu)-CO-(CH2)18-CO2H); Aib20; D-Glu24; C-terminal NH2
B16: Peptide 68 (peptide)
peptide: B11 peptide with S11X, X13L, S16K
modifications: Aib2; αMeS11; K17((2-[2-(2-Amino-ethoxy)-ethoxy]-acetyl)2-(γGlu)-CO-(CH2)18-CO2H); Aib20; C-terminal NH2

Target: human GLP-1 receptor (human, UniProt P43220 24-463)
Experiment: cell-based or functional assay

Row | Binder | hGLPIR cAMP EC50 ratio
1 | B1 | 0.233
2 | B2 | 0.675
3 | B3 | 0.0637
4 | B4 | 0.0966
5 | B5 | 0.386
6 | B6 | 0.0969
7 | B7 | 0.463
8 | B8 | 0.429
9 | B9 | 0.089
10 | B10 | 0.426
11 | B11 | 0.514
12 | B12 | 0.85
13 | B13 | 0.237
14 | B14 | 0.255
15 | B15 | 1.25
16 | B16 | 0.354

Source: patent US20230293638A1 (Eli Lilly, published 2023)
